In patent US20040086519A1:

Target: P-selectin (pig)
Experiment: cell-based or functional assay

- decrease in neutrophil adhesion at stented coronary sites 4 weeks after stenting (pigs, in vivo): 49%
- decrease in platelet adhesion at stented coronary sites 4 weeks after stenting (pigs, in vivo): 39%
Substance: soluble P-selectin glycoprotein ligand-1 (PSGL-1) chimera (rPSGL-Ig) (from UniProt Q14242 42-305) (Fc fusion)
- decrease in adhesion of 51Cr-platelets to deeply injured arterial segments 1 week following repeat angioplasty (pigs, in vivo): 85%
- decrease in adhesion of 111In-neutrophils to deeply injured arterial segments 1 week following repeat angioplasty (pigs, in vivo): 75%
